{
  "source": "patent US20230165938A1",
  "molecules": {"B1": {"name": "human rhodopsin kinase (G protein receptor kinase 1) (enzyme, UniProt Q15835 1-560, looked up)", "chain": "MDFGSLETVVANSAFIAARGSFDGSSSQPSRDKKYLAKLKLPPLSKCESLRDSLSLEFESVCLEQPIGKKLFQQFLQSAEKHLPALELWKDIEDYDTADNDLQPQKAQTILAQYLDPQAKLFCSFLDEGIVAKFKEGPVEIQDGLFQPLLQATLAHLGQAPFQEYLGSLYFLRFLQWKWLEAQPMGEDWFLDFRVLGKGGFGEVSACQMKATGKLYACKKLNKKRLKKRKGYQGAMVEKKILMKVHSRFIVSLAYAFETKADLCLVMTIMNGGDIRYHIYNVNEENPGFPEPRALFYTAQIICGLEHLHQRRIVYRDLKPENVLLDNDGNVRISDLGLAVELLDGQSKTKGYAGTPGFMAPELLQGEEYDFSVDYFALGVTLYEMIAARGPFRARGEKVENKELKHRIISEPVKYPDKFSQASKDFCEALLEKDPEKRLGFRDETCDKLRAHPLFKDLNWRQLEAGMLMPPFIPDSKTVYAKDIQDVGAFSTVKGVAFDKTDTEFFQEFATGNCPIPWQEEMIETGIFGELNVWRSDGQMPDDMKGISGGSSSSSKSGMC"}},
  "experiment_in_all_cases": "cell-based or functional assay",
  "key": {"[1]": {"target": "wildtype human rod opsin (human) (UniProt P08100)"}, "[2]": {"target": "phosphonull Rod opsin 6A mutant (human) (UniProt P08100)"}, "[3]": {"target": "wildtype human rod opsin (human) (UniProt P08100)", "remark": "listed apart in the source"}},
  "data": [
    {"molecule": "wildtype human visual arrestin (from UniProt P10523 1-405)", "values": [
      {"measurement": "Response decay (best fit Toff) of the light-driven BRET G protein (Go) activation response in Hek293T cells, arrestin co-expressed without GRK1, relative to RodWT alone (% of RodWT level)", "setting": "[1]", "value": 90},
      {"measurement": "Response decay rate of the BRET G protein activation light response, arrestin and GRK1 both co-expressed with RodWT, relative to RodWT alone", "setting": "[1]", "value": 2.5, "unit": "x faster"},
      {"measurement": "Toff of the BRET G protein activation light response, arrestin and GRK1 both co-expressed with RodWT (RodWT alone 166.16)", "setting": "[1]", "value": 65.6, "unit": "s"}
    ]},
    {"molecule": "B1", "values": [
      {"measurement": "Response amplitude (A) of the BRET G protein activation light response, GRK1 only co-expressed with Rod6A (scaling factor A)", "setting": "[2]", "value": 0.42},
      {"measurement": "Response amplitude (A) of the BRET G protein activation light response, GRK1 (or GRK1+Arr) co-expressed with RodWT (% of RodWT amplitude)", "setting": "[3]", "value": 25}
    ]}
  ]
}
